Assay results published in patent publication US20250171537A1 (NOVIMMUNE, published 2025).

Molecular target: T1, human CD47 (human, UniProt Q08722 19-139, limits assumed)
T1 construct: in the IHC study it is the native protein in frozen human tissues; also called Integrin-Associated-Protein; IAP
Assay: immunohistochemistry, biotin-conjugated NI-1801 on frozen human tissues
From the text: Sections of ovarian carcinoma (endometrioid adenocarcinoma) were used as positive controls.

T1 sequence (Q08722 19-139 limits assumed): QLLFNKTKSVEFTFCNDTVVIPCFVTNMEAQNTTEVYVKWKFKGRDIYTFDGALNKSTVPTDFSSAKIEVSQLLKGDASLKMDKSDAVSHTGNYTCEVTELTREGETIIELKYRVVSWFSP

binding result: binds
B1: NI-1801 (bispecific antibody Ka3×O38, anti-CD47 × anti-mesothelin) (bispecific antibody, human IgG1, kappa, lambda)
heavy: not shown
light 1: not shown
light 2: QPVLTQPASLSASPGASASLTCTLRSGINVRDYRIFWYQQKPGSPPQYLLRYKSASDKQQGSGVPSRFSGSKDASANAGILLISGLQSEDEADYYCMIWHHDSEGHAFVFGGGTKLTVLGQPKAAPSVTLFPPSSEELQANKATLVCLISDFYPGAVTVAWKADSSPVKAGVETTTPSKQSNNKYAASSYLSLTPEQWKSHRSYSCQVTHEGSTVEKTVAPTECS
notes: also called CD47×MSLN bispecific
